The values below come from the RNAGym collection of RNA variant scans (doi:10.7554/elife.80360).

The chains are these.
B1: Hammerhead Ribozyme (parent)
chain: ACCGGAUGUGCUUUCCGGUCUGAUGAGUCCGUGAGGACGAAACAG

Variants of B1 are the subject of this data set. Kind of data set: self-cleavage, relative activity (ratio to wild type); higher = more cleavage; co-transcriptional.
Consider G25C G39U, for which the self-cleavage came to 0.33. Consider G25C G39C, for which the self-cleavage was 0.242. As for G25C G39A, the self-cleavage came to 0.33.

As for A26G G36A, the self-cleavage worked out at 0.319.

For A26G G36C, the self-cleavage worked out at 0.307. In the case of A26G G36U it was 0.412; in that of U24G G45U, 0.489.

As for U24G G45A, the self-cleavage was 0.541.

As to U24G G45C, the self-cleavage worked out at 0.536.

With G25U A37U, the self-cleavage was 0.302. The value for G25U A37G was 0.287; that for G25U A37C was 0.294.

Turning to G25C A26G, the self-cleavage came to 0.265. In the case of G25C A26U it was 0.337; in that of G25C A26C, 0.355. Turning to G25A G35A, the self-cleavage amounted to 0.315. The value for G25A G35U was 0.35. In the case of G25A G35C it was 0.347; in that of A26C A42G, 0.371; in that of A26C A42C, 0.305. The value for A26C A42U was 0.393; that for A26G C29U was 0.365; that for A26G C29A was 0.402.

Turning to A26G C29G, the self-cleavage was 0.283.

G25C A37G: the self-cleavage was determined as 0.321.

Turning to G25C A37C, the self-cleavage worked out at 0.285. In the case of G25C A37U it was 0.286. In the case of G25A C43U it was 0.341; in that of G25A C43G, 0.338. In the case of G25A C43A it was 0.294; in that of G25C G31C, 0.339. Regarding G25C G31U, the self-cleavage is 0.358. As for G25C G31A, the self-cleavage is 0.339.

In the case of G25C U32G, the self-cleavage came out at 0.281. The value for G25C U32C was 0.342. Take G25C U32A: the self-cleavage is 0.298. Take A26C C29G: the self-cleavage was 0.303. The value for A26C C29A was 0.241. For A26C C29U, the self-cleavage stood at 0.448.

As to G25C G33C, the self-cleavage was determined as 0.272.

Regarding G25C G33A, the self-cleavage was 0.31. For G25C G33U, the self-cleavage stood at 0.231.

For the variant A26G G45C, the self-cleavage stood at 0.389.

Turning to A26G G45U, the self-cleavage came to 0.338. The value for A26G G45A was 0.3. With G25C G45U, the self-cleavage worked out at 0.279.

On to G25C G45A, for which the self-cleavage turned out to be 0.302. For the variant G25C G45C, the self-cleavage was 0.378. In the case of G25C C30U it was 0.314. Regarding G25C C30A, the self-cleavage was found to be 0.262. On to G25C C30G, for which the self-cleavage was found to be 0.221. In the case of G25A G31C it was 0.326; in that of G25A G31A, 0.347.

For G25A G31U, the self-cleavage amounted to 0.416. In the case of G25C C38G it was 0.304. Turning to G25C C38U, the self-cleavage was 0.22.

Turning to G25C C38A, the self-cleavage was 0.367. As for G25C G27C, the self-cleavage is 0.278. In the case of G25C G27A it was 0.285; in that of G25C G27U, 0.294; in that of U24G C43G, 0.337. The value for U24G C43U was 0.463. The value for U24G C43A was 0.402; that for G25C C29A was 0.243.

As to G25C C29G, the self-cleavage came out at 0.334. The value for G25C C29U was 0.235; that for A26C G33C was 0.559; that for A26C G33U was 0.774. In the case of A26C G33A, the self-cleavage stood at 0.655. The value for U24G U28C was 0.971; that for U24G U28A was 0.912. The value for U24G U28G was 0.885; that for A26C C38U was 0.503. The value for A26C C38A was 0.657. In the case of A26C C38G, the self-cleavage stood at 0.33. The value for G25U G33U was 0.325.

Regarding G25U G33C, the self-cleavage was determined as 0.305. In the case of G25U G33A it was 0.374; in that of G25C G36U, 0.309; in that of G25C G36C, 0.281. In the case of G25C G36A it was 0.305; in that of G25U G39C, 0.302; in that of G25U G39A, 0.318. With G25U G39U, the self-cleavage was 0.295.

Take A26G A34C: the self-cleavage is 0.346. In the case of A26G A34G it was 0.305. As to A26G A34U, the self-cleavage came to 0.353. As for A26C G36A, the self-cleavage was 0.395. A26C G36U: the self-cleavage is 0.355. Regarding A26C G36C, the self-cleavage turned out to be 0.277. Take G25C C43G: the self-cleavage was 0.235. The value for G25C C43A was 0.302; that for G25C C43U was 0.425; that for G25A G27U was 0.314. Take G25A G27A: the self-cleavage amounted to 0.306. As to G25A G27C, the self-cleavage stood at 0.355. In the case of G25U, the self-cleavage turned out to be 0.331. In the case of G25A it was 0.377. Consider G25C, for which the self-cleavage stood at 0.324.

As to A26C C30A, the self-cleavage amounted to 0.426. Turning to A26C C30U, the self-cleavage came out at 0.753. The value for A26C C30G was 0.33. In the case of G25C A40U it was 0.332. The value for G25C A40G was 0.447; that for G25C A40C was 0.359.

Turning to A26C A34C, the self-cleavage is 0.434. As for A26C A34U, the self-cleavage amounted to 0.344. A26C A34G: the self-cleavage was determined as 0.349. Regarding G25U G45U, the self-cleavage came out at 0.323. As for G25U G45C, the self-cleavage was 0.398. On to G25U G45A, for which the self-cleavage came out at 0.306. In the case of A26C U32A, the self-cleavage was found to be 0.659.

As to A26C U32G, the self-cleavage was 0.42.

As to A26C U32C, the self-cleavage was found to be 0.803. In the case of G25A A41U it was 0.275; in that of G25A A41C, 0.3; in that of G25A A41G, 0.337. In the case of G25U G35C it was 0.259; in that of G25U G35A, 0.282; in that of G25U G35U, 0.326. Take A26G C30U: the self-cleavage stood at 0.404. In the case of A26G C30A it was 0.307; in that of A26G C30G, 0.245; in that of A26G C43U, 0.285.

For the variant A26G C43G, the self-cleavage was determined as 0.31. In the case of A26G C43A it was 0.325; in that of A26G G33U, 0.344. A26G G33C: the self-cleavage worked out at 0.409. The value for A26G G33A was 0.401; that for G25C A41G was 0.359. As to G25C A41U, the self-cleavage amounted to 0.319. As to G25C A41C, the self-cleavage was found to be 0.359. Regarding A26C G31A, the self-cleavage was found to be 0.687.

As to A26C G31C, the self-cleavage is 0.411. In the case of A26C G31U it was 0.727. G25A C30G: the self-cleavage came out at 0.305. The value for G25A C30U was 0.331; that for G25A C30A was 0.369; that for G25C A42G was 0.27. Consider G25C A42C, for which the self-cleavage turned out to be 0.293.

For the variant G25C A42U, the self-cleavage turned out to be 0.332.

As for G25A G36U, the self-cleavage was determined as 0.33.

As for G25A G36A, the self-cleavage worked out at 0.32. In the case of G25A G36C it was 0.302; in that of G25U G36U, 0.334.

For the variant G25U G36C, the self-cleavage turned out to be 0.312.

G25U G36A: the self-cleavage came out at 0.365. In the case of G25U A26G it was 0.298.

With G25U A26C, the self-cleavage stood at 0.288. The value for G25U A26U was 0.343; that for A26G G27A was 0.27; that for A26G G27C was 0.297. The value for A26G G27U was 0.322. In the case of G25U A41G it was 0.35. Regarding G25U A41U, the self-cleavage came to 0.337. The value for G25U A41C was 0.316; that for A26G A44U was 0.347; that for A26G A44C was 0.266.

As to A26G A44G, the self-cleavage came to 0.654. In the case of G25A U32A it was 0.352. For the variant G25A U32G, the self-cleavage was determined as 0.419. The value for G25A U32C was 0.417; that for A26C C43G was 0.31.

Regarding A26C C43A, the self-cleavage turned out to be 0.349. Take A26C C43U: the self-cleavage is 0.343. In the case of G25U G27C it was 0.285. The value for G25U G27U was 0.31.
